tested on: c-Abl (mouse); assay: phosphorylation enrichment, bacterial display (enrichment ratio); higher = better substrate or ligand; peptides without Tyr show the background
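Note: 11-residue human phosphosite peptides and single-mutation variants displayed on the E. coli surface, counted by deep sequencing, each peptide's frequency after selection divided by its frequency in the unselected input library; frequency after pTyr selection over input frequency; kinase dosed for 20-30% of maximal phosphorylation in three min.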

| Sequence | phosphorylation enrichment |
| --- | --- |
| FKGKNYKPLDL [RPL35_Y78_K77N_YF] | 0.618 |
| QQIFTYDSGIH [JUP_Y22_T19I_YF] | 1.14 |
| VKPENDRRLDI [VHL_Y175_Y175D] | 0.535 |
| LAETSYVIVLE [MAGEA1_Y276_K278I] | 1.54 |
| SRDTRYLVLAV [AMH_Y195] | 0.739 |
| EEGRVYVFRLS [ITGAE_Y549_YF] | 0.812 |
| DPLLTYLFPPK [LMNA_Y481_R482L] | 0.836 |
| ITVCDYTNPCT [MYD88_Y276] | 0.651 |
| VDTGVYAVPPP [BCAR1_Y410_S407T] | 20.7 |
| NCFKFYMSDDI [ATRX_Y204_YF] | 0.95 |
| RLLVIYPWTQR [HBG2_Y36_V35I] | 0.907 |
| SLLLSYFLIKW [NUP160_Y773_P768S_YF] | 1.05 |
| AERKLYRNVML [ZNF569_Y33_Q29E] | 0.453 |
| AEEEIYGEFEA [Src_opt_1995] | 0.97 |
| VGRVGYVSGWG [HP_Y280] | 0.807 |
| VDDEIYFFRKP [PBRM1_Y1289_YF] | 1.35 |
| FSNPAYYVLEG [INPPL1_Y986_N982S] | 0.591 |

| Sequence | phosphorylation enrichment |
| --- | --- |
| DYTEAYNSKIK [CLK1_Y305_P307S] | 0.584 |
| IEENGYNTFAS [FGF10_Y161_YF] | 0.846 |
| LTECGYSFTTT [ACTB_Y198_R196C] | 0.708 |
| LEKRAYICAHP [ACAD9_Y611] | 0.638 |
| YAREGYSALPQ [SARS2_Y52] | 0.541 |
| SLDHPYEKPRK [INAVA_Y333] | 0.423 |
| ADNSAYLMGLN [MYH7_Y386_K383N] | 0.738 |
| KAESWYQTKYE [KRT75_Y342_E337K] | 0.396 |
| FECKWYIPLTD [BCR_Y756_D752E_YF] | 0.796 |
| TGDFGYRAPGY [TNS2_Y668] | 0.533 |
| CTTIYYNYMCN [TP53_Y234_H233Y] | 6.37 |
| TTICKYSTPME [GUCY2C_Y839] | 0.63 |
| TPTYPYLLPKS [PLD2_Y580] | 0.564 |
| HSLLQYGGSAN [ANK1_Y624_R619H] | 0.472 |
| NPQKSYFILLY [WAS_Y83_R86L] | 0.719 |
| QPDLLYDHIQP [TRRAP_Y862_F860L] | 3.03 |

biological target: FGFR1 (UniProt P11362); assay: as above
Sequence (P11362 whole entry, looked up): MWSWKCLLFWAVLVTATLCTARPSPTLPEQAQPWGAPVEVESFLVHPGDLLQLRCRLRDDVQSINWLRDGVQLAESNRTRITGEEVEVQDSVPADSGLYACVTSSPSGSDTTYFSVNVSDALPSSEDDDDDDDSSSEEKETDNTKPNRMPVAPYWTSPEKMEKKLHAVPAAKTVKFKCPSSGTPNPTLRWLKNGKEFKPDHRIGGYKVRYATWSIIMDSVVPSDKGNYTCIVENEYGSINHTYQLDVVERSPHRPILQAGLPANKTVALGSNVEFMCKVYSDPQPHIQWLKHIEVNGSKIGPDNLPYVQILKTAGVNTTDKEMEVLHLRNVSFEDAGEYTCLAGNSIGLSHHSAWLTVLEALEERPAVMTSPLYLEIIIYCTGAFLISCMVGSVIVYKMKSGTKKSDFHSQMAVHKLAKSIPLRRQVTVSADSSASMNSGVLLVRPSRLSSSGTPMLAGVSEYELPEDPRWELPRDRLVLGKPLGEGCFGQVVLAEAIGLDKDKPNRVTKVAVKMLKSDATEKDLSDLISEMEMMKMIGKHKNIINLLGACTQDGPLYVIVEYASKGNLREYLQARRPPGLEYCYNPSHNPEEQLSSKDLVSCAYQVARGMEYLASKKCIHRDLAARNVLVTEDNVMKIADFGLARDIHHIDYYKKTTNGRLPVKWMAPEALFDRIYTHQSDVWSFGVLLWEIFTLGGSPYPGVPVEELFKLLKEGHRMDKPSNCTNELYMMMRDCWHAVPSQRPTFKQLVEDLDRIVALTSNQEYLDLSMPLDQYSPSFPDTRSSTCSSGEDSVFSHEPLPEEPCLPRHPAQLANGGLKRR

| Sequence | phosphorylation enrichment |
| --- | --- |
| FKGKNYKPLDL [RPL35_Y78_K77N_YF] | 0.393 |
| QQIFTYDSGIH [JUP_Y22_T19I_YF] | 0.784 |
| VKPENDRRLDI [VHL_Y175_Y175D] | 0.37 |
| LAETSYVIVLE [MAGEA1_Y276_K278I] | 0.688 |
| SRDTRYLVLAV [AMH_Y195] | 0.543 |
| EEGRVYVFRLS [ITGAE_Y549_YF] | 0.508 |
| DPLLTYLFPPK [LMNA_Y481_R482L] | 4.35 |
| ITVCDYTNPCT [MYD88_Y276] | 0.521 |
| VDTGVYAVPPP [BCAR1_Y410_S407T] | 1.28 |
| NCFKFYMSDDI [ATRX_Y204_YF] | 0.565 |
| RLLVIYPWTQR [HBG2_Y36_V35I] | 0.594 |
| SLLLSYFLIKW [NUP160_Y773_P768S_YF] | 0.732 |
| AERKLYRNVML [ZNF569_Y33_Q29E] | 0.367 |
| AEEEIYGEFEA [Src_opt_1995] | 0.694 |
| VGRVGYVSGWG [HP_Y280] | 0.427 |
| VDDEIYFFRKP [PBRM1_Y1289_YF] | 1.32 |
| FSNPAYYVLEG [INPPL1_Y986_N982S] | 10.1 |

| Sequence | phosphorylation enrichment |
| --- | --- |
| DYTEAYNSKIK [CLK1_Y305_P307S] | 0.514 |
| IEENGYNTFAS [FGF10_Y161_YF] | 0.602 |
| LTECGYSFTTT [ACTB_Y198_R196C] | 0.674 |
| LEKRAYICAHP [ACAD9_Y611] | 0.506 |
| YAREGYSALPQ [SARS2_Y52] | 0.522 |
| SLDHPYEKPRK [INAVA_Y333] | 0.339 |
| ADNSAYLMGLN [MYH7_Y386_K383N] | 0.512 |
| KAESWYQTKYE [KRT75_Y342_E337K] | 0.367 |
| FECKWYIPLTD [BCR_Y756_D752E_YF] | 0.497 |
| TGDFGYRAPGY [TNS2_Y668] | 0.415 |
| CTTIYYNYMCN [TP53_Y234_H233Y] | 12.1 |
| TTICKYSTPME [GUCY2C_Y839] | 0.608 |
| TPTYPYLLPKS [PLD2_Y580] | 0.63 |
| HSLLQYGGSAN [ANK1_Y624_R619H] | 0.316 |
| NPQKSYFILLY [WAS_Y83_R86L] | 1.79 |
| QPDLLYDHIQP [TRRAP_Y862_F860L] | 1.02 |

biological target: Jak2 (UniProt O60674); assay: as above
Sequence (O60674 whole entry, looked up): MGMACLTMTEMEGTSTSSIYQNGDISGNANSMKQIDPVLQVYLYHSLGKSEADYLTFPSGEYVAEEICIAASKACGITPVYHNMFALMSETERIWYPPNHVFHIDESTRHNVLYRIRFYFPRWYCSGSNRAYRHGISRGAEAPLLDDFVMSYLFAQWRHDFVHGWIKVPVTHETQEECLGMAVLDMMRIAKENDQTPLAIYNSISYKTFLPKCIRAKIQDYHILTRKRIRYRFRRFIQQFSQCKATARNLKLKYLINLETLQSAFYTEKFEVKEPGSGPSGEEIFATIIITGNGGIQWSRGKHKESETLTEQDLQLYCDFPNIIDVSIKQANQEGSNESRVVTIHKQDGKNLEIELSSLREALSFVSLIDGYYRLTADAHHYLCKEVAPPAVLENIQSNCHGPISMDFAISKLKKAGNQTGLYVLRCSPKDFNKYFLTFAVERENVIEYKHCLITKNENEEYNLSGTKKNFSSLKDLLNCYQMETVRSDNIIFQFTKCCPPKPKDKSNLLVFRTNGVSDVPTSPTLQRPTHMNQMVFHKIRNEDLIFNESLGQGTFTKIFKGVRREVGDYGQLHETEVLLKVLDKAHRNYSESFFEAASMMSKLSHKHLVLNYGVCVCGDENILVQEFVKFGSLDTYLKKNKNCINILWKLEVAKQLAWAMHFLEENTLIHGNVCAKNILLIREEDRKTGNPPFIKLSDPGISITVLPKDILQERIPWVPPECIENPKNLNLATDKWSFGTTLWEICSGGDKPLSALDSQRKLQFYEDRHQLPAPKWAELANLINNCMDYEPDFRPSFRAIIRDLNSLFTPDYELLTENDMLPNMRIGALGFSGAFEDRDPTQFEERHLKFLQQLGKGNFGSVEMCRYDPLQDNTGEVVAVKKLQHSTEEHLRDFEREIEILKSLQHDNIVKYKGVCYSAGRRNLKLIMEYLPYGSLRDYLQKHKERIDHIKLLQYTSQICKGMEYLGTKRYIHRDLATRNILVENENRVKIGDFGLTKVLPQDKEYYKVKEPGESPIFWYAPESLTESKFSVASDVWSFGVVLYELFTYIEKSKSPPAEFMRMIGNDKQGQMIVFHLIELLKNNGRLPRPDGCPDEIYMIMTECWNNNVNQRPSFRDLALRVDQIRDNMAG

| Sequence | phosphorylation enrichment |
| --- | --- |
| FKGKNYKPLDL [RPL35_Y78_K77N_YF] | 0.663 |
| QQIFTYDSGIH [JUP_Y22_T19I_YF] | 1.2 |
| VKPENDRRLDI [VHL_Y175_Y175D] | 0.692 |
| LAETSYVIVLE [MAGEA1_Y276_K278I] | 2.19 |
| SRDTRYLVLAV [AMH_Y195] | 0.909 |
| EEGRVYVFRLS [ITGAE_Y549_YF] | 1.14 |
| DPLLTYLFPPK [LMNA_Y481_R482L] | 2.79 |
| ITVCDYTNPCT [MYD88_Y276] | 1.11 |
| VDTGVYAVPPP [BCAR1_Y410_S407T] | 0.827 |
| NCFKFYMSDDI [ATRX_Y204_YF] | 1.17 |
| RLLVIYPWTQR [HBG2_Y36_V35I] | 1.12 |
| SLLLSYFLIKW [NUP160_Y773_P768S_YF] | 1.51 |
| AERKLYRNVML [ZNF569_Y33_Q29E] | 0.653 |
| AEEEIYGEFEA [Src_opt_1995] | 1.29 |
| VGRVGYVSGWG [HP_Y280] | 0.821 |
| VDDEIYFFRKP [PBRM1_Y1289_YF] | 1.25 |
| FSNPAYYVLEG [INPPL1_Y986_N982S] | 3.92 |

| Sequence | phosphorylation enrichment |
| --- | --- |
| DYTEAYNSKIK [CLK1_Y305_P307S] | 0.965 |
| IEENGYNTFAS [FGF10_Y161_YF] | 0.961 |
| LTECGYSFTTT [ACTB_Y198_R196C] | 0.889 |
| LEKRAYICAHP [ACAD9_Y611] | 0.818 |
| YAREGYSALPQ [SARS2_Y52] | 0.904 |
| SLDHPYEKPRK [INAVA_Y333] | 0.436 |
| ADNSAYLMGLN [MYH7_Y386_K383N] | 1.11 |
| KAESWYQTKYE [KRT75_Y342_E337K] | 0.471 |
| FECKWYIPLTD [BCR_Y756_D752E_YF] | 1.32 |
| TGDFGYRAPGY [TNS2_Y668] | 0.557 |
| CTTIYYNYMCN [TP53_Y234_H233Y] | 5.1 |
| TTICKYSTPME [GUCY2C_Y839] | 0.756 |
| TPTYPYLLPKS [PLD2_Y580] | 0.639 |
| HSLLQYGGSAN [ANK1_Y624_R619H] | 0.394 |
| NPQKSYFILLY [WAS_Y83_R86L] | 1.19 |
| QPDLLYDHIQP [TRRAP_Y862_F860L] | 1.27 |

biological target: Fes (UniProt P07332); assay: as above
Sequence (P07332 whole entry, looked up): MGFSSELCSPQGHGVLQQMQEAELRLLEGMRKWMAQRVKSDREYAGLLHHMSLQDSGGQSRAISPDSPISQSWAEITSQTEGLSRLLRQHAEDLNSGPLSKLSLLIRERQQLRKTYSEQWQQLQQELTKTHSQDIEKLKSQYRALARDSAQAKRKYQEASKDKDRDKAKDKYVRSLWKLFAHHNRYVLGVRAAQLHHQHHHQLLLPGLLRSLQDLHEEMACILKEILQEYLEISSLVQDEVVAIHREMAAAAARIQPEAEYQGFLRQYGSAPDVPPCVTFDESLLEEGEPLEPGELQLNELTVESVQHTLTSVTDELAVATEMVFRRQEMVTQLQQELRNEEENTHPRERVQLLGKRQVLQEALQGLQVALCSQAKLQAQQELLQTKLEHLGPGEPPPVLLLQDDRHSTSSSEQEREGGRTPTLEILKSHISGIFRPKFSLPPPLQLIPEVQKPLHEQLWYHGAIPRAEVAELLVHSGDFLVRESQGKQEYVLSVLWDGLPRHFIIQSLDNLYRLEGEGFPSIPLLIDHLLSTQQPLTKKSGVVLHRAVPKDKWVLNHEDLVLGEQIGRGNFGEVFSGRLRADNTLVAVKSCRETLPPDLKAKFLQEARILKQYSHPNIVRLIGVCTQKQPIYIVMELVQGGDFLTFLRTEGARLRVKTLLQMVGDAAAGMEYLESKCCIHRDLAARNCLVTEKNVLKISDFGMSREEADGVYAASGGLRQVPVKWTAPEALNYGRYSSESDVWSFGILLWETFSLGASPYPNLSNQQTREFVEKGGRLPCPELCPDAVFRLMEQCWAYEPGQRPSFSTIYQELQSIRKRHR

| Sequence | phosphorylation enrichment |
| --- | --- |
| FKGKNYKPLDL [RPL35_Y78_K77N_YF] | 0.641 |
| QQIFTYDSGIH [JUP_Y22_T19I_YF] | 1.32 |
| VKPENDRRLDI [VHL_Y175_Y175D] | 0.789 |
| LAETSYVIVLE [MAGEA1_Y276_K278I] | 2.35 |
| SRDTRYLVLAV [AMH_Y195] | 1.1 |
| EEGRVYVFRLS [ITGAE_Y549_YF] | 1.37 |
| DPLLTYLFPPK [LMNA_Y481_R482L] | 1.08 |
| ITVCDYTNPCT [MYD88_Y276] | 1.02 |
| VDTGVYAVPPP [BCAR1_Y410_S407T] | 0.799 |
| NCFKFYMSDDI [ATRX_Y204_YF] | 1.23 |
| RLLVIYPWTQR [HBG2_Y36_V35I] | 1.46 |
| SLLLSYFLIKW [NUP160_Y773_P768S_YF] | 1.46 |
| AERKLYRNVML [ZNF569_Y33_Q29E] | 0.519 |
| AEEEIYGEFEA [Src_opt_1995] | 1.49 |
| VGRVGYVSGWG [HP_Y280] | 0.792 |
| VDDEIYFFRKP [PBRM1_Y1289_YF] | 1.4 |
| FSNPAYYVLEG [INPPL1_Y986_N982S] | 0.848 |

| Sequence | phosphorylation enrichment |
| --- | --- |
| DYTEAYNSKIK [CLK1_Y305_P307S] | 0.969 |
| IEENGYNTFAS [FGF10_Y161_YF] | 1.07 |
| LTECGYSFTTT [ACTB_Y198_R196C] | 1.15 |
| LEKRAYICAHP [ACAD9_Y611] | 0.969 |
| YAREGYSALPQ [SARS2_Y52] | 0.789 |
| SLDHPYEKPRK [INAVA_Y333] | 0.63 |
| ADNSAYLMGLN [MYH7_Y386_K383N] | 0.932 |
| KAESWYQTKYE [KRT75_Y342_E337K] | 0.698 |
| FECKWYIPLTD [BCR_Y756_D752E_YF] | 1.49 |
| TGDFGYRAPGY [TNS2_Y668] | 0.546 |
| CTTIYYNYMCN [TP53_Y234_H233Y] | 1.03 |
| TTICKYSTPME [GUCY2C_Y839] | 0.801 |
| TPTYPYLLPKS [PLD2_Y580] | 0.599 |
| HSLLQYGGSAN [ANK1_Y624_R619H] | 0.481 |
| NPQKSYFILLY [WAS_Y83_R86L] | 1.19 |
| QPDLLYDHIQP [TRRAP_Y862_F860L] | 2.01 |

— the supplement of paper PMC10065799, “High-throughput profiling of sequence recognition by tyrosine kinases and SH2 domains using bacterial peptide display” (eLife, 2023)
